Here are results for six molecules from patent US20140212427A1 (University of Pennsylvania, published 2014).

In experiment [1] the target is T1, human properdin deletion mutant dTSR5+6 (human, UniProt P27918 28-313).
T1 construct: Human properdin with TSR5 and TSR6 deleted; CHO cell lysate; also called TSR0-4; TSR5+6 deletion mutant
Description: ELISA with CHO cell lysates of properdin deletion mutants (FIG. 6). The procedure:
(§1) However, because dTSR5 has undergone proteolytic degradation leading to possible TSR6 removal (FIG. 5), it is likely that the epitope for mAb 25 is located in TSR6. HuP refers to full length human properdin transfection which is used as a positive control. Con refers to untransfected CHO cell lysate which is used as a negative control for lack of binding. All mutant proteins contained a 6×His tag at the C-terminus.
(§2) (see FIG. 6). ELISA plates were coated with 50 μl of 2 μg/ml of the concerned mAb overnight at 4° C. The plates were washed 3× with PBS-T and then 25 μg (in 50 μl PBS containing 1% BSA) CHO cell lysate proteins were added to the wells and the plates were incubated for 1 hour at room temperature. The plates were washed 3× with PBS-T and then captured protein was detected by biotinylated goat anti-human properdin antibody and HRP-avidin system.
Background: In an ELISA, binding on a coated surface is turned into a signal by an enzyme label.

A further experiment concerns the target human properdin (human, UniProt P27918 28-469). Kind of experiment: cell-based or functional assay.
Experiment [2] addresses T2, human properdin mutant TSR0-4+½ TSR5 (human, UniProt P27918 28-345).
T2 construct: Expressed in CHO cells, tested as lysate; expression confirmed by Western blot
Description: sandwich ELISA with CHO cell lysates (FIG. 7). The procedure:
as §2
Three human properdin mutants comprising TSR0-4+¼ TSR5, TSR0-4+½ TSR5 or TSR0-4+¾ TSR5 were generated by conventional PCR. They were cloned into pCAGGS and expressed in CHO cells as described in Example 5. Protein expression was confirmed by Western analysis using goat anti-human properdin antibody. The blot was stripped and reprobed with a mouse anti-His tag antibody (Qiagen) to confirm that the C-terminal His Tag is present (no C-terminal proteolysis).

The target of experiment [3] is T3, full-length human properdin with the double mutations C62A and C78A (TSR6) (human, UniProt P27918 28-469).
T3 construct: Whether this mutant carries a 6×His tag is not clear; Homogenate of transfected CHO cells; also called C62A and C78A double mutant
Description: ELISA with homogenates of transfected CHO cells (FIG. 8B).

In experiment [4] the target is T4, human properdin deletion mutant dTSR6 (human, UniProt P27918 28-377).
T4 construct: CHO cell lysate; also called TSR0-5
Description: ELISA with CHO cell lysates of properdin deletion mutants (FIG. 6). The procedure:
as §1, §2

The target of experiment [5] is T5, human properdin mutant TSR0-5+¾ TSR6 (human, UniProt P27918 28-446).
T5 construct: Expressed in CHO cells, tested as lysate; expression confirmed by Western blot
Description: sandwich ELISA with CHO cell lysates (FIG. 8A). The procedure: as §2
Three human properdin mutants comprising TSR0-5+¼ TSR6, TSR0-5+½ TSR6 or TSR0-5+¾ TSR6 were generated by conventional PCR. They were cloned into pCAGGS and expressed in CHO cells as described in Example 5. Protein expression was confirmed by Western analysis using goat anti-human properdin antibody. The blot was stripped and reprobed with a mouse anti-His tag antibody (Qiagen) to confirm that the C-terminal His Tag is present (no C-terminal proteolysis). […] These are cysteine 62 (C62) and cysteine 78 (C78) of TSR6.

human properdin, sequence (P27918 28-469): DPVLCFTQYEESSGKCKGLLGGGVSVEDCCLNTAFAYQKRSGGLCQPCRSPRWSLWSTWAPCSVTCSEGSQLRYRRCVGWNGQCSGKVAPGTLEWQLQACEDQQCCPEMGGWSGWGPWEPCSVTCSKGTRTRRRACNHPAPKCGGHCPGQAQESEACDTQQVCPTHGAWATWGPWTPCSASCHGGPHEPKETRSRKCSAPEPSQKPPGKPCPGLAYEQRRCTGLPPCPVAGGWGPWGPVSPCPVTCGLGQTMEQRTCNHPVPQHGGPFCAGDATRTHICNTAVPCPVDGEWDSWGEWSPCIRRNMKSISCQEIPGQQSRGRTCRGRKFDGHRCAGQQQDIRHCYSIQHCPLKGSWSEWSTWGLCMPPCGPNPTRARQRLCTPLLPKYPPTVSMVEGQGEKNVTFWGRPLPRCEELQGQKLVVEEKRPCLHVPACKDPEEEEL
T1 sequence (P27918 other isoform, or with tags, fused parts or gaps mutant limits assumed): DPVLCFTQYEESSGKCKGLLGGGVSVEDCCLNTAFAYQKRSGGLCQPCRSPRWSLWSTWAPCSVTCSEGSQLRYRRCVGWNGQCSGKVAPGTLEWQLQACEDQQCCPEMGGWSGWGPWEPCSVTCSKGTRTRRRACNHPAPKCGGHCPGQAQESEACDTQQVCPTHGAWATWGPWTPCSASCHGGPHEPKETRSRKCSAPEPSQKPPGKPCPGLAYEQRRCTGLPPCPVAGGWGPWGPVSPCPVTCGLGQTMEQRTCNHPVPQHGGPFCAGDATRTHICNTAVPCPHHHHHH
T3 sequence (P27918 28-469 C439A/C455A limits assumed): as the sequence (P27918 28-469) above, with C412A, C428A counted along it
T2 sequence (P27918 other isoform, or with tags, fused parts or gaps mutant limits assumed): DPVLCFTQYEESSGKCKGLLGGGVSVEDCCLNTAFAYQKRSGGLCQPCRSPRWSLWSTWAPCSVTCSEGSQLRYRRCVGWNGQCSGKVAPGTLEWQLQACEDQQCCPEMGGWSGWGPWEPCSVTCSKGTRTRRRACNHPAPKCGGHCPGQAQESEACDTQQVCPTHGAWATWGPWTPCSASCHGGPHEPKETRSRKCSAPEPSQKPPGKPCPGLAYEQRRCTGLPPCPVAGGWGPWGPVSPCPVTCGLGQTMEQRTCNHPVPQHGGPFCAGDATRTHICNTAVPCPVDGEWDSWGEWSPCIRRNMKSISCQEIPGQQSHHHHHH
T5 sequence (P27918 other isoform, or with tags, fused parts or gaps mutant limits assumed): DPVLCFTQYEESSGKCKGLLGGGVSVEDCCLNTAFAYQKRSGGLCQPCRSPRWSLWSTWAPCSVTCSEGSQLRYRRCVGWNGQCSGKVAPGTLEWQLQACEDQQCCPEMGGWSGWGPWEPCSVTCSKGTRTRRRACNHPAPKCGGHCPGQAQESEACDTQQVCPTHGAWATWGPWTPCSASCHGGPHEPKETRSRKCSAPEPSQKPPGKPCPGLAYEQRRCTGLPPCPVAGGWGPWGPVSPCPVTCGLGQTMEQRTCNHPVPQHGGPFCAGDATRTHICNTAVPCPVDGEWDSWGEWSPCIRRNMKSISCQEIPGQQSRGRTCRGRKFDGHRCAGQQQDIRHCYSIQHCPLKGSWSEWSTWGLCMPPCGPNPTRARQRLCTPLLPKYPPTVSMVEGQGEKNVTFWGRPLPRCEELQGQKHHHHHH
T4 sequence (P27918 other isoform, or with tags, fused parts or gaps mutant limits assumed): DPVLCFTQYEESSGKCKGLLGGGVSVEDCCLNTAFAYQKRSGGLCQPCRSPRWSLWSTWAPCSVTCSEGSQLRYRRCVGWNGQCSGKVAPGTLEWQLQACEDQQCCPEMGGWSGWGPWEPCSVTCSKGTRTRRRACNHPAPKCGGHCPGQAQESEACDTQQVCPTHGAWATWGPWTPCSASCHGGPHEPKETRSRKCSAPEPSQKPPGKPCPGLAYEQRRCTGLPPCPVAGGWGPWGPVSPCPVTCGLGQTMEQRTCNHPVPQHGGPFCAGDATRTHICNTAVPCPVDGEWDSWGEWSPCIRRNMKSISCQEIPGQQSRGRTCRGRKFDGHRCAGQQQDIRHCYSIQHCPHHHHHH

B1: mAb 19.1 (antibody, V domains shown)
VH: QVQLKQSGPGLVQPSQSLSISCTVSGFSLTTYGVHWVRQSPGKGLEWLGVIWSGGDTDYNASFISRLRINKDTSKSQVFFKMNSLQADDTAYYCARNKDYYTNYDFTMDYWGQGTSVTVSS
VL: NIMMTQSPSSLAVSAGEKVTMSCKSSQSVLYSSNQKNFLAWYQQKPGQSPKLLIYWASTRESGVPDRFTGSGSGTDFILTINSVQVEDQAVYYCHQYLSSYTFGGGTKLEIK
notes: Mouse hybridoma monoclonal antibody from properdin knockout mice immunised with human properdin; kappa light chain
As to B1, the binding result in experiment [1] was “no binding”. Besides, in the experiment with human properdin, the “LPS-induced AP complement activation in 50% normal human serum (C3 deposition, OD450)” value came to 5 µg/mL; the “acidified autologous serum lysis of PNH patient RBCs (Ham's test)” value (shortened to “acidified autologous serum lysis”) is at least 8 µg/ml; the “concentration sufficient to inhibit LPS-induced human AP complement activation in 50% NHS (C3 deposition)” value is 5 µg/mL; the “lysis of human RBCs by 50% human serum with fH 19-20 and anti-DAF mAb” value (“lysis of human RBCs by 50% human serum” below) worked out at 5 µg/mL. The binding result in experiment [2] is reported as “no binding”.

B2: chimeric 19.1 mAb (antibody, human IgG4 S228P, kappa, V domains shown)
VH: QVQLKQSGPGLVQPSQSLSISCTVSGFSLTTYGVHWVRQSPGKGLEWLGVIWSGGDTDYNASFISRLRINKDTSKSQVFFKMNSLQADDTAYYCARNKDYYTNYDFTMDYWGQGTSVTVSS
VL: NIMMTQSPSSLAVSAGEKVTMSCKSSQSVLYSSNQKNFLAWYQQKPGQSPKLLIYWASTRESGVPDRFTGSGSGTDFILTINSVQVEDQAVYYCHQYLSSYTFGGGTKLEIKT
For the molecule B2, in the experiment with human properdin, the “concentration sufficient to inhibit LPS-induced human AP complement activation in 50% NHS (C3 deposition)” value stood at 10 µg/mL.

B3: mAb 22.1 (antibody, V domains shown)
VH: QVQLKQSGPGLVQPSQSLSITCTVSGFSLTSYGVHWVRQSPGKGLEWLGVIWSGGSTDYNAAFISRLSISKDTSKSQVFFKMNSLQPDDTAIYYCARNKDFYSNYDYTMDYWGQGTSVTVSS
VL: NIMMTQSPSFLAVSAGEKVTLSCKSSQSVLYSSNQKNFLAWYQQKPGQSPKLLIYWASTRESGVPDRFTGSGSGTDFTLTISSVQAEDLAVYYCHQYLSSYTFGGGTKLEIK
As for B3, in the experiment with human properdin, the “LPS-induced AP complement activation in 50% normal human serum (C3 deposition, OD450)” value was 5 µg/mL; the “lysis of human RBCs by 50% human serum” value was 5 µg/mL.

B4: humanized 19.1 mAb with heavy chain variable region humanized 19.1 VH-3-66-04 (antibody, human IgG4 S228P, kappa, V domains shown)
VH: EVQLVESGGGLVQPGGSLRLSCAASGFSLTTYGVHWVRQAPGKGLEWVSVIWSGGDTDYNASFISRFTISRDNSKNTLYLQMNSLRAEDTAVYYCARNKDYYTNYDFTMDYWGQGTTVTVSS
VL: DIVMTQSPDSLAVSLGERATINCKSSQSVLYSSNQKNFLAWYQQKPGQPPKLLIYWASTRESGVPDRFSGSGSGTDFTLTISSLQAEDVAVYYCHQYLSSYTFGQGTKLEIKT
Regarding B4, the “concentration sufficient to inhibit LPS-induced human AP complement activation in 50% NHS (C3 deposition)” value in the experiment with human properdin was 10 µg/mL.

B5: humanized 19.1 mAb with heavy chain variable region humanized 19.1 VH-4-59-01 (antibody, human IgG4 S228P, kappa, V domains shown)
VH: QVQLQESGPGLVKPSETLSLTCTVSGFSLTTYGVHWIRQPPGKGLEWIGVIWSGGDTDYNASFISRVTISVDTSKNQFSLKLSSVTAADTAVYYCARNKDYYTNYDFTMDYWGQGTTVTVSS
VL: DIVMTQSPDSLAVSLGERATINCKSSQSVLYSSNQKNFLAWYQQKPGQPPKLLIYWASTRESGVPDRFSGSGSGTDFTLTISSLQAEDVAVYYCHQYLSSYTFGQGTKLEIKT
With B5, in the experiment with human properdin, the “acidified autologous serum lysis” value was found to be 20 µg/ml and the “concentration sufficient to inhibit LPS-induced human AP complement activation in 50% NHS (C3 deposition)” value was 10 µg/mL.

B6: mAb 25 (antibody, V domains shown)
VH: QVQLLQSGAEVMKPGASVTLSCKAIGYTFIDYWIEWIKQRPGHGLEWIGEIFPGSGTINHNEKFKDKASFSAHSSSNTAYMQLSRLTSEDSAIYYCAREGLDYWGQGTTLTVSS
VL: QIVLTQSPAIMSASPGERVTMTCSASSSVSYIYWYQQKSGTSPKRWIFDTSTLASGVPTRFSGSGSGTSYSLTISSMETEDAATYYCQQWSRNPFTFGSGTKLEIK
notes: Mouse hybridoma monoclonal antibody; also called anti-properdin mAb 25
With B6, the binding result in experiment [3], in experiment [1], in experiment [4] and in experiment [5] was “no binding” each time. The “LPS-induced AP complement activation in 50% normal human serum (C3 deposition, OD450)” value with human properdin is 5 µg/mL. Moreover, the “acidified autologous serum lysis” value with human properdin was at least 8 µg/ml. Further, in the experiment with human properdin, the “lysis of human RBCs by 50% human serum” value turned out to be 5 µg/mL.
